Results as given in PMC8053095.
Where two headings read alike, the source gives them in different places.

What was measured:
[1] = molecular target: T1, ToPif1 (Thermus oshimai, UniProt K7RJ88 64-507); assay: crystal structure
T1 sequence: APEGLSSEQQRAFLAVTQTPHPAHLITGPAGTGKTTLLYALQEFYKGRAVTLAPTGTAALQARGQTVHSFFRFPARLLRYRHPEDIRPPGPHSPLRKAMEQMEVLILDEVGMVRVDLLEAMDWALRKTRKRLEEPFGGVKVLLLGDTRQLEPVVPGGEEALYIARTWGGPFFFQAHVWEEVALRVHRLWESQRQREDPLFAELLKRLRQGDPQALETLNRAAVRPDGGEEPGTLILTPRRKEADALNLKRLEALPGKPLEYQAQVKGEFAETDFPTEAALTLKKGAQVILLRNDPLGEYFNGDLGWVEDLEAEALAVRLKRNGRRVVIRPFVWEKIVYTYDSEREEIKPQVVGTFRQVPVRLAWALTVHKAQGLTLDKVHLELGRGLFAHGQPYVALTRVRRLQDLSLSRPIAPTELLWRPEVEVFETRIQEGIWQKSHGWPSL

[2] = molecular target: T1, ToPif1; assay: DLS
[3] = molecular target: T2, ToPif1 S69C/S405C (Thermus oshimai, UniProt K7RJ88 64-507, S69C;S405C); assay: smFRET
T2 sequence: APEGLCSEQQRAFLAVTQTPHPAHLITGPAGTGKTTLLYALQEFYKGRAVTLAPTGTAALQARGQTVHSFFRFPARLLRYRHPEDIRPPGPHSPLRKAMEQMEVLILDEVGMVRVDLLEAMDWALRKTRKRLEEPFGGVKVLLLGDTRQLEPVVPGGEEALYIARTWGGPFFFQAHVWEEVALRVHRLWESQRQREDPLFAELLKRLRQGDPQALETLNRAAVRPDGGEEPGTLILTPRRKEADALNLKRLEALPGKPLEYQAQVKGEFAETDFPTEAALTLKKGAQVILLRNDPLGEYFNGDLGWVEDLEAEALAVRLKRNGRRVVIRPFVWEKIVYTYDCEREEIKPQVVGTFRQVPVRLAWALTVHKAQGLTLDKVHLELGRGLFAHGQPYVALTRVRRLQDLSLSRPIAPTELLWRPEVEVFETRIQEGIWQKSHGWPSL

[4] = molecular target: T2, ToPif1 S69C/S405C; assay: smFRET; remark: listed apart in the source

B1: S7D11 (dsDNA)
DNA 1: TTTTTTTCGCAGTGCTCG
DNA 2: CGAGCACTGCG
B1: binds [1].

TTTTTTTTTTTTTTT (ssDNA) [dT15]: binds [2].

TTTTTTTT (ssDNA) [dT8]: binds [3].

B2: S8D38 (dsDNA)
DNA 1: TTTTTTTTTCCGGATCACCATGGCGGACTCTCTGCTCTCGTGCTCC
DNA 2: GGAGCACGAGAGCAGAGAGTCCGCCATGGTGATCCGGA
B2: binds [4].
